This is an account of results in a protein production outcome set (Wang et al. 2014).

This data set can be described thus: label from the status in PepcDB records.
For “MKRYRTLLFDVDDTILDFQAAEALALRLLFEDQNIPLTNDMKAQYKTINQGLWRAFEEGKMTRDEVVNTRFSALLKEYGYEADGALLEQKYRRFLEEGHQLIDGAFDLISNLQQQFDLYIVTNGVSHTQYKRLRDSGLFPFFKDIFVSEDTGFQKPMKEYFNYVFERIPQFSAEHTLIIGDSLTADIKGGQLAGLDTCWMNPDMKPNVPEIIPTYEIRKLEELYHILN”, the protein production result was “not failed”. Then “MKLIQMSDHIYKLNIQTTVGIPIQINTWFIVNDNDVYIIDTGMDDYAELQITIAKSLGNPKGIFLTHGHLDHINGAKRISEALKIPIFTYKNELPYINGELPYPNKTHTENTGVQYIVKPLETNTNLPFNYYLTPGHAPGHVIYFHNQDKILICGDLFISDAQHLHIPIKKFTYNMTENIKSGQIIDNLCPKLITTSHGDDLYYSDDIYSIYKFKYEELEHHHHHH”, with “failed”; and “MSEVSVLLLAVILDLLIGEPPHRLHPVVWMGSAVEWMRNILGNSRISGIILTIAVAAPFTLPLFLINHLQDPLNLIISSILLSAVISIRMLVTSALEVGGSLKEDIEDARRKLSMLVSRDTTSLSDEQITSAAIETLTENITDSVTAPIFYFILLGLPGAFLYRVVNTLDAMVGYLDSENRDIGWFPARLDDILNYIPSRITGVLMVPAALLLGMNWRGSFRILLRDARRTPSPNSGFTMAAAAGALSVQLEKPGVYVLGDPCDGLDNEKLLDAVKLSSLTLILFTLAAAGVMLVIP”, with “failed”; and “MIKQSPKYITPLNEQNVNKDNANLLVCPFAGASNSAFNSWRSTDISGLNCQLVNYSGHGCRFKEPAFNDIGLLANELITIIKKFYPPRHNSLLLCGHSMGAQVAFETAIQLEKNGWELSGLILSGCQAPHIQARRLLSDLNDDDFIQQLIAIGGCDAELIKQPQLLKQFMPLLRADFLATERYFFQKSTKRLFHTPVLLMYGSHDSEADKNEVEAWQDWIDKHCTINCIAGDHFYPITRPNTFCRFIIDFYHQ”, with “failed”.

For the sequence “MLEGQLEAGEPKEGTHPEDPCPGAGAAMEKTPAAAEVPREDSNAGEMPSLQQQITSLHQELGRQQSLWADIHRKLQSHMDALRKQNRELREELRGLQRQQWEAGKKPAASPHAGRESHTLALEPAFGKISPLSADEETTPKYAGRKSQSATLLGQRWSSNHLAPPKVTLRAYRL”, the protein production result is listed as “failed”. Turning to “MESPGGSAPLLGLELCAAARDSAAMAGPGAPCDPCAPAAVWKRHIVRQLRHRDRTQKALFLELVPAYNHLLEKAELLAKFSEKLKSEPKDAISTRHEDWREEVSGTGPDQVSSPASLRVKWQQEKKGLQLVCGEMAYQVVKKSAALDTLQSQLEERQDRLEALQACVVQLQEARAQQSRQLEERQAENAAQREAYETLLQQAVHQEAALRRLQEEARDLLEQLVQRKARAAAERNLRNERRERANQALVSQELKKAAKRTVSISEIPNTLEDGTKEETVALAPAALPEFSESETCEKWKRPFRSASATSLTLSRCVDVVKGLLDFKKRRGHSVGGAPEQRYQSIPVCVSAQIPSQAQDVLDAHLSEVNAVCFGPNSSLLATGGADRLIHLWNVVGGRLEANQTLEGAGGSITSVDFDPSGSQVLAATYNQAAQLWKVGETQSKETLSGHKDKVTAAKFKLTRHQAVTGSRDRTVKEWDLGRAYCSRTINVLSYCNDVVCGDHIIISGHNDQKIRFWDSRGPHCIQVIPVQGRVTSLHLSYDQLHLLSCSRDNTLKVIDLRISNIRQVFRADGFKCSSDWTKAVFSPDRSYALAGSSNGDLYIWDVNTGKLETSLQGPHCTAVNAVAWCFSGNHVVSVDQGRKVVLWH”, the protein production entry is listed as “failed”. Then “SAVSARLRTTAEDTSIAKSTQDPIGDTEISVANAKGSSDSNIKNSPGGNSVGQESELEHVPEEDDSGDKEADHEDSETATAKKRKAQPLKNPKKSLKRGRVPAPLNLSDSNTNTHGGNIKDGNLASSNSAHFPPVANQNVKSAPAQVTQHSKFQPRVQYLGKASSRQSIQVNNSSNSYGKPHMPSAGIMSAMNPYMPMNRYIMSPYYNPYGIPPPHMLNKPIMTPYVSYPYPMGPRTSIPYAMQGGNARPYEENEYSASNYRNKRVNDSYDSPLSGTASTGKTRRSEEGSRNSSVGSSANAGPTQQRADLRPADMIPAEEYHFERDALLSANTKARSASTSTSTSTSTNRDRSSWHEAEPNKDEEEGTDLAIEDGAVPTPTFTTFQRTSQPQQQSPSLLQGEIRLSSHIFAFEFPLSSSNVDKKMFMSICNKVWNESKELTKKSSSHHRTGK”, with “failed”; and “MENIKNPKNADDCSDSISKNSHQGVDDSLNQSRSYVCSFCIRGFSNAQALGGHMNIHRRDRAKLRQKLMEDNKDDVVAESDASEVVSLDLNEQQQQQGEALTCDDHDQYVDNDISPKQKLEFWVQESKLDTNDHGKVTEASIDGSSSSHHRDIEVLDLELRLGQSVVKKKTT”, with “failed”; and “KTFMIGVTSCISGDGKSFCSHNLARIYAISGKKTLLIRGDMRKAFNAPANLIPQGSMGLSQHLIGMATIDQIIHKGEIENLYQIIPGPVPPNASELVASQKMEEFIRIMKDKFEVVIMDSPPVGLVSDYMSVIKHIDANLYIVRYDYTPKETLEAIKDLKNKYPAQSHSIIFNGIT”, with “failed”. For “MAKITVGTENQAPIEIYYEDHGTGKPVVLIHGWPLSGRSWEYQVPALVEAGYRVITYDRRGFGKSSQPWEGYEYDTFTSDLHQLLEQLELQNVTLVGFSMGGGEVARYISTYGTDRIEKVVFAGAVPPYLYKSEDHPEGALDDATIETFKSGVINDRLAFLDEFTKGFFAAGDRTDLVSESFRLYNWDIAAGASPKGTLDCITAFSKTDFRKDLEKFNIPTLIIHGDSDATVPFEYSGKLTHEAIPNSKVALIKGGPHGLNATHAKEFNEALLLFLKD”, the protein production result is “not failed”.

As to “MDQKEAPSFTEASVHDPSVIKVEDTFYVFGSHLAAAKTEDLRNWTQIATHVHEGNPLIPNVFVELAEAFEWANSNTLWAADVIQLEDGRFYMYYNACQGDAPRSALGVAVADDIEGPYENLGVFLKSGMWGEESPDGTIYDANVHPNAIDPHVFFDEEGKLWMVYGSYSGGIFILEMDPDTGFPLPGQGYGTHLMGGNHSRIEAPYIHYDKETEYYYLYVTFGGLDSTGGYNMRVARSKQPDGPYVDGEGHLMSEVRGAPGTLFDDASIEPYGVKQMGNFLFKRELGERGTGYVSPGHNSVYYDDEVDKIFLFFHTRFPERGEAHEIRVHQMFMNRKGWPVIAPYRYLEHHHHHH”, the protein production result was “failed”. Then “MKVFITGGTGFVGSAVVQELVANGFEVVGLARSETSAQKLISWGAQPVRGSLTSLSTLATAAAQADAIIHLGFNNDFRHFFQAGAMDRRAIETMGRAISGTNKPLVVTYGTTGIRKHVETEHEVADTGLLKWLTPRKSEIVARQLMAQNINAFVVRLSPAVHGAGDMGFTRTVIERAKKSHRAEYFGLGTHAWSAVHRLDAAHLFYLVTMYGLEHPTTNERVFNAVAEESITIAAIARTISRKLNVPLKAKYNPLSFGDTAMLYLINCPTSSQLTRQILGWVPVQPDLLTDISSSRYLEHHHHHH”, with “failed”. Then “MDFNYTIKALRTKKKLDAKPMTHTDFCYTIKALRSTKKLDAKPKPHTDFGYTIKVLRSRKKLELEPQLDLKSLSSVDLLEDTNSKTHTDFSYTIKASRSKKKLDTKSKTRTVFDYTIKAFRSKKKLDRKPKTHTDFGYTFKAMRSKKKLC”, with “failed”; and “MARIKLDFPDTAFTFETRLPVRITDINGANHLGNDALISMLSEARAQFLVEHGIEEAGHDGVGIIVTDLATMYQGESFYPDMLRFEVGLMDFNKYGGDFVFRVTKADSGQPVALAKYGFVFFNYQSREVTPMPESFRARFA”, with “failed”. On to “MADTITVSIVLAYFVVTLALGFFAARKIKTAEHYYGARKLFGMFVTAVAVFSGIASAFTFIGGPGLVYPMGGTVNWVIWTPVISMPLIWYLLGKRIKLITEARPVATLPDLTAARFKSDAVRFLTAVALIFGIITYLAGNVMGAGLVLTDMLGTPLELSIAIVFGIIMLYTAFGGMVASILTDFFQGLVMMVAAIIFVVFILIMTGGVENLFATIAESNPRHIDPIGVGPIWLGIMGWWWALNIGSSVQPHAVTKFFALKDYRDLKWGALVTTIAWTLACLMWFFGGYASVWVVIKGLAEAPARSDQAIFGVIAQMPVVLKAVIYAGVLAAIMSTVSGFISMGTAAVVRDIPTAIGKSLSQRGQILWGRVVTVILTVVAALFGYYGGYVVGILVTLGLGYFASMLFPLLVIGLNWKRATKEAAIITTALTVAMNLGFLVYEKVLSMSLPYGLPGYGVTFAVGIITMVLVSLITKGAALDDMDEDIRAAMSL”, for which the protein production result is on record as “failed”.
